# Data reported in IntAct's records for PubMed 19737519.
# B1: Ribosome assembly protein 4 (Saccharomyces cerevisiae), P25382 (parent)
# chain: MSTLIPPPSKKQKKEAQLPREVAIIPKDLPNVSIKFQALDTGDNVGGALRVPGAISEKQLEELLNQLNGTSDDPVPYTFSCTIQGKKASDPVKTIDITDNLYSSLIKPGYNSTEDQITLLYTPRAVFKVKPVTRSSSAIAGHGSTILCSAFAPHTSSRMVTGAGDNTARIWDCDTQTPMHTLKGHYNWVLCVSWSPDGEVIATGSMDNTIRLWDPKSGQCLGDALRGHSKWITSLSWEPIHLVKPGSKPRLASSSKDGTIKIWDTVSRVCQYTMSGHTNSVSCVKWGGQGLLYSGSHDRTVRVWDINSQGRCINILKSHAHWVNHLSLSTDYALRIGAFDHTGKKPSTPEEAQKKALENYEKICKKNGNSEEMMVTASDDYTMFLWNPLKSTKPIARMTGHQKLVNHVAFSPDGRYIVSASFDNSIKLWDGRDGKFISTFRGHVASVYQVAWSSDCRLLVSCSKDTTLKVWDVRTRKLSVDLPGHKDEVYTVDWSVDGKRVCSGGKDKMVRLWTH
# Variants of: B1
# Details: with mdn1_yeast MDN1, Q12019
# mdn1_yeast MDN1, Q12019, sequence (Q12019 whole entry): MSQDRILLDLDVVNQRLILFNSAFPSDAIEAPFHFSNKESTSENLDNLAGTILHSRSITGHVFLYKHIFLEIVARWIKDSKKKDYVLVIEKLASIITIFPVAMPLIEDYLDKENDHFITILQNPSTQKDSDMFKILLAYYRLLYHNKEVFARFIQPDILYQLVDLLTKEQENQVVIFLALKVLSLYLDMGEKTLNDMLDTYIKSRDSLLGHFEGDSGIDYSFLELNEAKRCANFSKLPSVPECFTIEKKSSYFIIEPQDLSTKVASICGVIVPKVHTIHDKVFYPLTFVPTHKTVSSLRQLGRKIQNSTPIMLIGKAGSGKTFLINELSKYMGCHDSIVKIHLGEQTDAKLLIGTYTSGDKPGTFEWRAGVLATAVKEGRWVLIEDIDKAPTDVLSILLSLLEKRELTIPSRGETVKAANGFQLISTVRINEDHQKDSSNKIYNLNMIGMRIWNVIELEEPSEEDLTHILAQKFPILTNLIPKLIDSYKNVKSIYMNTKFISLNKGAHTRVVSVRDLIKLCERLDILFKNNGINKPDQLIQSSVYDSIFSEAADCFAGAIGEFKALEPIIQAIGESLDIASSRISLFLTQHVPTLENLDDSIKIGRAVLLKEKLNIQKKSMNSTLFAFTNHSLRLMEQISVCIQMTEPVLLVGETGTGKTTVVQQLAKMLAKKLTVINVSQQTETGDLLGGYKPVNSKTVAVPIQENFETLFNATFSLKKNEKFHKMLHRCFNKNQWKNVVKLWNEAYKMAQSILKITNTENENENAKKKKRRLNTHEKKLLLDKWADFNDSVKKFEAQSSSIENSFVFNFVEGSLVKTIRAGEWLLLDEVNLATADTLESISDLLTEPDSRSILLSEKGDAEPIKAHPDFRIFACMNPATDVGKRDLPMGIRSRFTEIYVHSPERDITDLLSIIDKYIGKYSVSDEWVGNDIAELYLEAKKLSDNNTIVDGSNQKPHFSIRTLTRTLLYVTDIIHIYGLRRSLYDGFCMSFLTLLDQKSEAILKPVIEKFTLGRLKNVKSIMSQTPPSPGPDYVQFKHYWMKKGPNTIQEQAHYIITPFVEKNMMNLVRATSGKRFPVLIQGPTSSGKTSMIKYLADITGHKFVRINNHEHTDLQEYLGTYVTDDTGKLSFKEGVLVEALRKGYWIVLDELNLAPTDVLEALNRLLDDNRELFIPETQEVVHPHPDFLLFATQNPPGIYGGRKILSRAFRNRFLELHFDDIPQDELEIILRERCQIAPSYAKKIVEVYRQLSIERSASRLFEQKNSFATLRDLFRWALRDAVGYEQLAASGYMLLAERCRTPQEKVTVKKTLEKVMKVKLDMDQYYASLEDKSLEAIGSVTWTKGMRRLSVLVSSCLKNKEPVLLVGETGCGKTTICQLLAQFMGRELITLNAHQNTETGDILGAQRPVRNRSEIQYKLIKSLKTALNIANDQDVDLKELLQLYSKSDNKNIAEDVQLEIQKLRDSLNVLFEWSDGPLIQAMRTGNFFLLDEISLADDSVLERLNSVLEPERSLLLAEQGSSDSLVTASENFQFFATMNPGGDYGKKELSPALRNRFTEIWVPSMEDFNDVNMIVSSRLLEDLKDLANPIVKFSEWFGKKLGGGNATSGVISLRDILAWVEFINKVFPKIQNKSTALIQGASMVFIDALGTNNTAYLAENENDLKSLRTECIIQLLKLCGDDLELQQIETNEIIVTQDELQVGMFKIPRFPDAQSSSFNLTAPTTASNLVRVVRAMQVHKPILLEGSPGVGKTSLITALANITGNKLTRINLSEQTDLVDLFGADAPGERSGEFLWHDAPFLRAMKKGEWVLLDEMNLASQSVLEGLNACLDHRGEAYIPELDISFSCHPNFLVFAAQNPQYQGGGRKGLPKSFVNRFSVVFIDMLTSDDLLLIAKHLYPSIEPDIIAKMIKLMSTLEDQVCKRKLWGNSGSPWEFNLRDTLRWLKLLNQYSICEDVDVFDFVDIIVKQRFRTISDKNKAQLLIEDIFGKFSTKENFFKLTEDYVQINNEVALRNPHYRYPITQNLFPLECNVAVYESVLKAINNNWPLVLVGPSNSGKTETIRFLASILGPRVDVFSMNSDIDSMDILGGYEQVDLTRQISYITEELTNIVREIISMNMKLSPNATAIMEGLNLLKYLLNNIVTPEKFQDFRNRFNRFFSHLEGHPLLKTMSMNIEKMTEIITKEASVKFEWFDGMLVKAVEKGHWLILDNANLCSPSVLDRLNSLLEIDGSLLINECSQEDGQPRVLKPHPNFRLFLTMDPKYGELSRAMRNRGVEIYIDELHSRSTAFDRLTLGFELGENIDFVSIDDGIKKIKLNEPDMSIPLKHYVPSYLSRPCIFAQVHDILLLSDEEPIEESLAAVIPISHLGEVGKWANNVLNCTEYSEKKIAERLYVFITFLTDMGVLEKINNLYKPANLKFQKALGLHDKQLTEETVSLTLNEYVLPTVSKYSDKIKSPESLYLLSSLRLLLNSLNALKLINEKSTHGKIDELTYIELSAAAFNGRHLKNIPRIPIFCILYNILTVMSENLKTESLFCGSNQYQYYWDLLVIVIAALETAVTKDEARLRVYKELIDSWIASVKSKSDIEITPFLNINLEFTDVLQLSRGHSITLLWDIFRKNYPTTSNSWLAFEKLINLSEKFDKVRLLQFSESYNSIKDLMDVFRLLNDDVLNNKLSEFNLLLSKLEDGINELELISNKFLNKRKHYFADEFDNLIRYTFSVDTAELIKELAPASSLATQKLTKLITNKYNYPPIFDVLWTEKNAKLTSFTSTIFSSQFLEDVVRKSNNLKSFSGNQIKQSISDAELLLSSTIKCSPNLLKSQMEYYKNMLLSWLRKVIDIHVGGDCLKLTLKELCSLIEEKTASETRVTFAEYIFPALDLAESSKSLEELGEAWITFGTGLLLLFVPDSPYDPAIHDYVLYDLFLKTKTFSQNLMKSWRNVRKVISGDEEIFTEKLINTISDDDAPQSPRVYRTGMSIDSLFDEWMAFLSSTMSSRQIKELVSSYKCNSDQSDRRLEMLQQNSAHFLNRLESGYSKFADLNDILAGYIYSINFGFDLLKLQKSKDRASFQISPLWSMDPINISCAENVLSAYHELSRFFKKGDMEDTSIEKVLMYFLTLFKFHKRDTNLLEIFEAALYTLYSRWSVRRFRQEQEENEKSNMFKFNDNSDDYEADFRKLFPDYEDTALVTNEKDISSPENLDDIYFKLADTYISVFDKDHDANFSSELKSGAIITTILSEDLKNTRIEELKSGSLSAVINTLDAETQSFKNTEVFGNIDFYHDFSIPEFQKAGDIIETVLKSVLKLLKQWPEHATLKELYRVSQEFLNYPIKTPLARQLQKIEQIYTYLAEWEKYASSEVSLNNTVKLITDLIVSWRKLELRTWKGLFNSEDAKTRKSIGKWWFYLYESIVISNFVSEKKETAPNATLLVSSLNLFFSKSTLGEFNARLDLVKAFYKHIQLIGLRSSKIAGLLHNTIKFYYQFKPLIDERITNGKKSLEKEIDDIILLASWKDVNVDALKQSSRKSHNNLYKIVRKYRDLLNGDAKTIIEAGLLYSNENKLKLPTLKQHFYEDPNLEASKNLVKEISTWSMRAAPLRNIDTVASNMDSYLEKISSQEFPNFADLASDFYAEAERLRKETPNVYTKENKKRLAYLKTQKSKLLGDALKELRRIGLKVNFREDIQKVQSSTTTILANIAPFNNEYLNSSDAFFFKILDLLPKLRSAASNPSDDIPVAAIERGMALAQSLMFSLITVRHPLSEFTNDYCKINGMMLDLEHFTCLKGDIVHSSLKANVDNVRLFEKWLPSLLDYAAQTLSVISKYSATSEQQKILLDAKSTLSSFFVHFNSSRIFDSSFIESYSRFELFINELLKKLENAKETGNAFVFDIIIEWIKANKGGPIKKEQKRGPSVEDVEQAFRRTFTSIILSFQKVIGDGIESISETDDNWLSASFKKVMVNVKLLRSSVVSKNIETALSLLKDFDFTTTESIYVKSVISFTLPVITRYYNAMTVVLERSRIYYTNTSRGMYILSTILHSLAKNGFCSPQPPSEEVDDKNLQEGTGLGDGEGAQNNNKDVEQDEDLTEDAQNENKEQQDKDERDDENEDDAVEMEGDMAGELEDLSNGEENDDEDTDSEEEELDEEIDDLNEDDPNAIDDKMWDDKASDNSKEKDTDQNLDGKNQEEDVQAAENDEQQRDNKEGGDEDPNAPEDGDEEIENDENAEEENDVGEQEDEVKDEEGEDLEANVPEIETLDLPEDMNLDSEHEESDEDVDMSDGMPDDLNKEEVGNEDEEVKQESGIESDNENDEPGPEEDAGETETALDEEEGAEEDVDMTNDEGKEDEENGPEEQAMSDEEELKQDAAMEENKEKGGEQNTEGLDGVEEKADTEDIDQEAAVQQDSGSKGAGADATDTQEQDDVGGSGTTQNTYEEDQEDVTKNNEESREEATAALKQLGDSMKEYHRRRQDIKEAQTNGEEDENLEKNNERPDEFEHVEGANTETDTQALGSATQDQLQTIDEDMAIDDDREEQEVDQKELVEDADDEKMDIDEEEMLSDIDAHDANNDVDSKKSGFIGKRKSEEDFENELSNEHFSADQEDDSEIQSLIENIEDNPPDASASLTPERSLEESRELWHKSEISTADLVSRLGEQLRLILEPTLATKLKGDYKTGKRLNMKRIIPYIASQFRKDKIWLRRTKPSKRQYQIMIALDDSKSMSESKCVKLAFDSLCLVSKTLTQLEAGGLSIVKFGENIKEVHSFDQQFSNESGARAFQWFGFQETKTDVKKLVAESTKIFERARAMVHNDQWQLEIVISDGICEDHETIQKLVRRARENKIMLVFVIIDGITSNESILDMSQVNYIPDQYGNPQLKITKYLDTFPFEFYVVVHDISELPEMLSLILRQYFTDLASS
row,effect of a mutation on the interaction,Variant
1,decreasing interaction,E114D
2,decreasing interaction,E114A
